Source: paper PMC12412652 (2025)

T1: BFL-1 (UniProt Q16548 1-175, biotin)
T1 chain: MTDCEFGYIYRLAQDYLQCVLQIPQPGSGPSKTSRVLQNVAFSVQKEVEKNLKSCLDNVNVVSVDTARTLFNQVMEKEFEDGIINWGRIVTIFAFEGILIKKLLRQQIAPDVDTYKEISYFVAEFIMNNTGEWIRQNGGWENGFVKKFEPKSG

T2: MBP-BAK 16-186, biotinylated (Avi tag, 6-histidine tag) (human, UniProt Q16611 16-186, biotin on the Avi tag (enzymatic, BirA))
T2 chain: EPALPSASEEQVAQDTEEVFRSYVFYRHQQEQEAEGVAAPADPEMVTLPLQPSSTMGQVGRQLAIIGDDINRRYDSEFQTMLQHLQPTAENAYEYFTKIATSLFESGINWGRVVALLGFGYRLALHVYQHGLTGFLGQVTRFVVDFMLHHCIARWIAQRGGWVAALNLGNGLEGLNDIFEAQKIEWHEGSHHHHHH


Columns and labels:
Assay in all cases: BLI
BFL-1 = molecular target: T1, BFL-1
[1] = molecular target: T2, MBP-BAK 16-186, biotinylated (Avi tag, …)
BCL-2 = BCL-2 (UniProt P10415 1-239, biotin)
BCL-2, sequence (P10415 1-207): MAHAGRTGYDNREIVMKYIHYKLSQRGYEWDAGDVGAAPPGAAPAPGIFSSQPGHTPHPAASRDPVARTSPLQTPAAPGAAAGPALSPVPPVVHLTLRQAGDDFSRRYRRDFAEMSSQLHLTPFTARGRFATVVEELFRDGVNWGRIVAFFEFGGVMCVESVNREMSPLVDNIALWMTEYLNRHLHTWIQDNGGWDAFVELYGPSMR

[2] = molecular target: MBP-BAX 1-166 C62S C126S, biotinylated (Avi tag, 6-histidine tag) (human, UniProt Q07812 1-166, C62S | C126S, biotin on the Avi tag (enzymatic, BirA))
MBP-BAX 1-166 C62S C126S, biotinylated (Avi tag, 6-histidine tag), sequence (Q07812 1-166 C62S/C126S): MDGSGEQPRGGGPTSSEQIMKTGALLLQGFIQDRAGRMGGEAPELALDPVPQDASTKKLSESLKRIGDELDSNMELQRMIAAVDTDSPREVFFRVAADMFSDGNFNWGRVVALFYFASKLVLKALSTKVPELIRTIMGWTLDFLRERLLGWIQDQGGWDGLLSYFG

[3] = molecular target: MBP-BAK 16-186, biotinylated (Avi tag, 6-histidine tag) (human, UniProt Q16611 16-186, biotin on the Avi tag (enzymatic, BirA)); remark: listed apart in the source

Kd (BFL-1) [nM] | Kd [1] [nM] | Kd (BCL-2) [nM] | Kd [2] [nM] | Kd [3] [nM] | Binder
300 | > 9000 | 2300 |  |  | αBAX2 (designed binder) GADPKKVLDKARDQAENRVRELRQKLTELYKEARKLDLTQEERRKLIKRYKAAMNEAIKDIHEAIEQAKEEADKLKDAGLVNEQQLKELKQRLNEKALAAAFRASGDTWHARRKLQYG
 |  | 3500 | 1.43 | > 20000 | αBAX1 (designed binder) GADPKKVLDKARDQAENRVRELAQKLEELYKEARKLDLTQEERRKLEKRYKAAMEEAIKDIHEAIEQAKEEADKLKDAGLVNEQQLKELKQRLNELAIAAAFRASGDTIEFRRKLQYG
